The results in this text go back to patent publication US20150344570A1 (published 2015).

This assay addresses T1, FcγRIIb extracellular domain with C-terminal His tag (human, UniProt P31994 43-217).
T1 construct: extracellular domain; also called FcgRIIb; 2b
T1 sequence (looked up): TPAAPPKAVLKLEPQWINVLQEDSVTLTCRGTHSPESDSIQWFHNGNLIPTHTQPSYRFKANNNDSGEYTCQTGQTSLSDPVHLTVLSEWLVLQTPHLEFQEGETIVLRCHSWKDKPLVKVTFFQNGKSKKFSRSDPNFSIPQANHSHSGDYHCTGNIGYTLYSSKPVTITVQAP
Briefly: SPR (Biacore), relative binding.

B1: GpH7-A5/GpH7-B3 variant I336_08L/GpL16-k0 (antibody, human IgG1, kappa)
heavy 1: not shown
heavy 2: not shown
light: DIVMTQSPLSLPVTPGEPASISCQASESLVHSNRNTYLHWYLQKPGQSPQLLIYKVSNRFSGVPDRFSGSGSGTDFTLKISRVEAEDVGVYYCSQNTHVPPTFGQGTKVEIERTVAAPSVFIFPPSDEQLKSGTASVVCLLNNFYPREAKVQWKVDNALQSGNSQESVTEQDSKDSTYSLSSTLTLSKADYEKHKVYACEVTHQGLSSPVTKSFNRGEC
notes: also called He Ab I336_08L
In the case of B1, the He/Con_2b was 107 % of HeCon Ab GpH7-A5/GpH7-B3/GpL16-k0.

B2: GpH7-A5/GpH7-B3 variant P238_15Y/GpL16-k0 (antibody, human IgG1, kappa)
heavy 1: not shown
heavy 2: not shown
light: B1 light
notes: also called He Ab P238_15Y
On to B2, for which the He/Con_2b was 218 % of HeCon Ab GpH7-A5/GpH7-B3/GpL16-k0.

B3: GpH7-A5/GpH7-B3 variant P238_06M/GpL16-k0 (antibody, human IgG1, kappa)
heavy 1: not shown
heavy 2: not shown
light: B1 light
notes: also called He Ab P238_06M
B3: the He/Con_2b is 174 % of HeCon Ab GpH7-A5/GpH7-B3/GpL16-k0.

B4: GpH7-A5/GpH7-B3 variant N325_09D/GpL16-k0 (antibody, human IgG1, kappa)
heavy 1: not shown
heavy 2: not shown
light: B1 light
notes: also called He Ab N325_09D
For B4, the He/Con_2b was 124 % of HeCon Ab GpH7-A5/GpH7-B3/GpL16-k0.

B5: GpH7-A5/GpH7-B3 variant K326_20W/GpL16-k0 (antibody, human IgG1, kappa)
heavy 1: not shown
heavy 2: not shown
light: B1 light
notes: also called He Ab K326_20W
Consider B5, for which the He/Con_2b was 148 % of HeCon Ab GpH7-A5/GpH7-B3/GpL16-k0.

B6: GpH7-A5/GpH7-B3 variant P331_15Y/GpL16-k0 (antibody, human IgG1, kappa)
heavy 1: not shown
heavy 2: not shown
light: B1 light
notes: also called He Ab P331_15Y
On to B6, for which the He/Con_2b is 114 % of HeCon Ab GpH7-A5/GpH7-B3/GpL16-k0.

B7: GpH7-A5/GpH7-B3 variant S337_15Y/GpL16-k0 (antibody, human IgG1, kappa)
heavy 1: not shown
heavy 2: not shown
light: B1 light
notes: also called He Ab S337_15Y
On to B7, for which the He/Con_2b is 100 % of HeCon Ab GpH7-A5/GpH7-B3/GpL16-k0.

B8: GpH7-A5/GpH7-B3 variant S239_03V/GpL16-k0 (antibody, human IgG1, kappa)
heavy 1: not shown
heavy 2: not shown
light: B1 light
notes: also called He Ab S239_03V
Consider B8, for which the He/Con_2b is 108 % of HeCon Ab GpH7-A5/GpH7-B3/GpL16-k0.

B9: GpH7-A5/GpH7-B3 variant L328_13S/GpL16-k0 (antibody, human IgG1, kappa)
heavy 1: not shown
heavy 2: not shown
light: B1 light
notes: also called He Ab L328_13S
B9: the He/Con_2b was 149 % of HeCon Ab GpH7-A5/GpH7-B3/GpL16-k0.

B10: GpH7-A5/GpH7-B3 variant N325_20W/GpL16-k0 (antibody, human IgG1, kappa)
heavy 1: not shown
heavy 2: not shown
light: B1 light
notes: also called He Ab N325_20W
B10: the He/Con_2b is 169 % of HeCon Ab GpH7-A5/GpH7-B3/GpL16-k0.

B11: GpH7-A5/GpH7-B3 variant K326_08L/GpL16-k0 (antibody, human IgG1, kappa)
heavy 1: not shown
heavy 2: not shown
light: B1 light
notes: also called He Ab K326_08L
For B11, the He/Con_2b is 177 % of HeCon Ab GpH7-A5/GpH7-B3/GpL16-k0.

B12: GpH7-A5/GpH7-B3 variant P238_03V/GpL16-k0 (antibody, human IgG1, kappa)
heavy 1: not shown
heavy 2: not shown
light: B1 light
notes: also called He Ab P238_03V
Turning to B12, the He/Con_2b is 120 % of HeCon Ab GpH7-A5/GpH7-B3/GpL16-k0.

B13: GpH7-A5/GpH7-B3 variant N325_08L/GpL16-k0 (antibody, human IgG1, kappa)
heavy 1: not shown
heavy 2: not shown
light: B1 light
notes: also called He Ab N325_08L
B13: the He/Con_2b was 197 % of HeCon Ab GpH7-A5/GpH7-B3/GpL16-k0.

B14: GpH7-A5/GpH7-B3 variant N325_03V/GpL16-k0 (antibody, human IgG1, kappa)
heavy 1: not shown
heavy 2: not shown
light: B1 light
notes: also called He Ab N325_03V
With B14, the He/Con_2b was 111 % of HeCon Ab GpH7-A5/GpH7-B3/GpL16-k0.

B15: GpH7-A5/GpH7-B3 variant S267_01G/GpL16-k0 (antibody, human IgG1, kappa)
heavy 1: not shown
heavy 2: not shown
light: B1 light
notes: also called He Ab S267_01G
For B15, the He/Con_2b is 105 % of HeCon Ab GpH7-A5/GpH7-B3/GpL16-k0.

B16: GpH7-A5/GpH7-B3 variant L234_09D/GpL16-k0 (antibody, human IgG1, kappa)
heavy 1: not shown
heavy 2: not shown
light: B1 light
notes: also called He Ab L234_09D
B16: the He/Con_2b was 150 % of HeCon Ab GpH7-A5/GpH7-B3/GpL16-k0.

B17: GpH7-A5/GpH7-B3 variant S324_06M/GpL16-k0 (antibody, human IgG1, kappa)
heavy 1: not shown
heavy 2: not shown
light: B1 light
notes: also called He Ab S324_06M
On to B17, for which the He/Con_2b was 112 % of HeCon Ab GpH7-A5/GpH7-B3/GpL16-k0.

B18: GpH7-A5/GpH7-B3 variant L328_02A/GpL16-k0 (antibody, human IgG1, kappa)
heavy 1: not shown
heavy 2: not shown
light: B1 light
notes: also called He Ab L328_02A
On to B18, for which the He/Con_2b is 144 % of HeCon Ab GpH7-A5/GpH7-B3/GpL16-k0.

B19: GpH7-A5/GpH7-B3 variant L235_09D/GpL16-k0 (antibody, human IgG1, kappa)
heavy 1: not shown
heavy 2: not shown
light: B1 light
notes: also called He Ab L235_09D
Turning to B19, the He/Con_2b was 106 % of HeCon Ab GpH7-A5/GpH7-B3/GpL16-k0.

B20: GpH7-A5/GpH7-B3 variant P238_10E/GpL16-k0 (antibody, human IgG1, kappa)
heavy 1: not shown
heavy 2: not shown
light: B1 light
notes: also called He Ab P238_10E
B20: the He/Con_2b was 232 % of HeCon Ab GpH7-A5/GpH7-B3/GpL16-k0.

B21: GpH7-A5/GpH7-B3 variant P331_10E/GpL16-k0 (antibody, human IgG1, kappa)
heavy 1: not shown
heavy 2: not shown
light: B1 light
notes: also called He Ab P331_10E
For B21, the He/Con_2b was 116 % of HeCon Ab GpH7-A5/GpH7-B3/GpL16-k0.

B22: GpH7-A5/GpH7-B3 variant P238_20W/GpL16-k0 (antibody, human IgG1, kappa)
heavy 1: not shown
heavy 2: not shown
light: B1 light
notes: also called He Ab P238_20W
Regarding B22, the He/Con_2b is 123 % of HeCon Ab GpH7-A5/GpH7-B3/GpL16-k0.

B23: GpH7-A5/GpH7-B3 variant S337_16H/GpL16-k0 (antibody, human IgG1, kappa)
heavy 1: not shown
heavy 2: not shown
light: B1 light
notes: also called He Ab S337_16H
As to B23, the He/Con_2b is 105 % of HeCon Ab GpH7-A5/GpH7-B3/GpL16-k0.

B24: GpH7-A5/GpH7-B3 variant L235_20W/GpL16-k0 (antibody, human IgG1, kappa)
heavy 1: not shown
heavy 2: not shown
light: B1 light
notes: also called He Ab L235_20W
As to B24, the He/Con_2b is 147 % of HeCon Ab GpH7-A5/GpH7-B3/GpL16-k0.

B25: GpH7-A5/GpH7-B3 variant L234_10E/GpL16-k0 (antibody, human IgG1, kappa)
heavy 1: not shown
heavy 2: not shown
light: B1 light
notes: also called He Ab L234_10E
In the case of B25, the He/Con_2b was 118 % of HeCon Ab GpH7-A5/GpH7-B3/GpL16-k0.

B26: GpH7-A5/GpH7-B3 variant P271_10E/GpL16-k0 (antibody, human IgG1, kappa)
heavy 1: not shown
heavy 2: not shown
light: B1 light
notes: also called He Ab P271_10E
In the case of B26, the He/Con_2b was 109 % of HeCon Ab GpH7-A5/GpH7-B3/GpL16-k0.

B27: GpH7-A5/GpH7-B3 variant P238_16H/GpL16-k0 (antibody, human IgG1, kappa)
heavy 1: not shown
heavy 2: not shown
light: B1 light
notes: also called He Ab P238_16H
In the case of B27, the He/Con_2b was 115 % of HeCon Ab GpH7-A5/GpH7-B3/GpL16-k0.
